The assay addresses HLA-Cw*0102 (human (endogenous in T2)).

Take “p24 Gag162-171 (from UniProt P04591 162-171) (peptide)”: the HLA-Cw*0102 expression on peptide-pulsed T2 cells (antibody DT9, flow cytometry) as compared to non-peptide pulsed T2 cells is > 5 fold.

Turning to “p24 Gag164-173 (from UniProt P04591 164-173) (peptide)”, the HLA-Cw*0102 expression on peptide-pulsed T2 cells (antibody DT9, flow cytometry) as compared to non-peptide pulsed T2 cells is > 5 fold.

Consider “p24 Gag146-155 (from UniProt P04591 146-155) (peptide)”, for which the HLA-Cw*0102 expression on peptide-pulsed T2 cells (antibody DT9, flow cytometry) as compared to non-peptide pulsed T2 cells is > 5 fold.

Regarding “p24 Gag176-185 (from UniProt P04591 176-185) (peptide)”, the HLA-Cw*0102 expression on peptide-pulsed T2 cells (antibody DT9, flow cytometry) as compared to non-peptide pulsed T2 cells was > 5 fold.

As for “p24 Gag177-186 (from UniProt P04591 177-186) (peptide)”, the HLA-Cw*0102 expression on peptide-pulsed T2 cells (antibody DT9, flow cytometry) as compared to non-peptide pulsed T2 cells was > 5 fold.

Regarding LKALGPAATL [p24 Gag334-343 (…)], the HLA-Cw*0102 expression on peptide-pulsed T2 cells (antibody DT9, flow cytometry) as compared to non-peptide pulsed T2 cells is > 5 fold.

Regarding SDIAGTTSTL [p24 Gag234-243 (…)], the HLA-Cw*0102 expression on peptide-pulsed T2 cells (antibody DT9, flow cytometry) as compared to non-peptide pulsed T2 cells is > 5 fold.

As to AAEWDRLHPV [p24 Gag209-218 (…)], the HLA-Cw*0102 expression on peptide-pulsed T2 cells (antibody DT9, flow cytometry) as compared to non-peptide pulsed T2 cells was > 5 fold.

Turning to VIPMFSALSE [p24 Gag168-177 (…)], the HLA-Cw*0102 expression on peptide-pulsed T2 cells (antibody DT9, flow cytometry) as compared to non-peptide pulsed T2 cells is > 5 fold.

Values taken from PMC3395618.
